The values that follow come from patent US20130143251A1.

For test [1], the target named is doubly labelled ubiquitinated peptide 32: Dnp-labelled Ub linked through a native isopeptide bond to MCA-(Nle)FKTEG (FRET substrate) (human).
For test [2], the target named is ubiquitinated peptide 24 (full Ub linked through a native isopeptide bond to a 31-mer from the C-terminus of H2B) (human).
Test [3] deals with ubiquitinated peptide 20 (full Ub linked through a native isopeptide bond to the H2B 8-mer AVTKYTSK) (human).

In test [1], “recombinant human UCH-L3 (ubiquitin C-terminal hydrolase) (from UniProt P15374) (enzyme)” had an increase of fluorescence emission upon cleavage (FRET assay) (fold increase in fluorescence) of 6. The percent hydrolysis, HPLC (% hydrolysis within 30 minutes) worked out at 25 in test [2] and 75 in test [3].
